Experimental data taken from publication PMC2955897 (Journal of immunology (Baltimore, Md. : 1950), 2009).
Read-outs that look alike come from different tables or passages of the source.

T1: Toll-like receptor 4 (mouse (endogenous in TG-elicited …, UniProt Q9QUK6 26-835))
T1 sequence (looked up): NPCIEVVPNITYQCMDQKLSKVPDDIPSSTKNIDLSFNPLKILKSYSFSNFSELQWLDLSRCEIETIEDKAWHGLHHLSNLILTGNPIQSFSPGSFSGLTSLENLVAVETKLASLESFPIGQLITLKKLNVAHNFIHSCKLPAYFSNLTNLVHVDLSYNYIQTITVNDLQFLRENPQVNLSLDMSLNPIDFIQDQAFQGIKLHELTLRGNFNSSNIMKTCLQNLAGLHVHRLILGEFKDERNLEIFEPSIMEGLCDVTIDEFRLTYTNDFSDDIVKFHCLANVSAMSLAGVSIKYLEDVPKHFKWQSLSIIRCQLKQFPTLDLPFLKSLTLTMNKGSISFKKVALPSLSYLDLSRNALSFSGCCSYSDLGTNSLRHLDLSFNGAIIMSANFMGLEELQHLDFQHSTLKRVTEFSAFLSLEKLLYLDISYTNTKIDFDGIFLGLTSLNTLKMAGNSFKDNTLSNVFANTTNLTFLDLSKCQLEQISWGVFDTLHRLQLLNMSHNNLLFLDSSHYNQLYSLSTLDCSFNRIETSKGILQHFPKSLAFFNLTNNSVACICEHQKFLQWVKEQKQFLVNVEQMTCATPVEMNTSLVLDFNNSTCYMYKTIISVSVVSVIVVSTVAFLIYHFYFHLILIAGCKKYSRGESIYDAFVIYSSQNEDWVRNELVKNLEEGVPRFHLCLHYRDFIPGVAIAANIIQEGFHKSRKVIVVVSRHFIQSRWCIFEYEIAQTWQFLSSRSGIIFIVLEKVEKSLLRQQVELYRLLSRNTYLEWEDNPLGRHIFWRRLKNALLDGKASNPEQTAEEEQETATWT


How the values were obtained:
Experiment in all cases: flow cytometry on cells
Toll-like receptor 4 [1] = target: T1, Toll-like receptor 4
Toll-like receptor 4 [2] = target: T1, Toll-like receptor 4; remark: listed apart in the source
Toll-like receptor 4 [3] = target: T1, Toll-like receptor 4; remark: listed apart in the source

Binder	Ki (Toll-like receptor 4 [1]) [µM]	Kd (Toll-like receptor 4 [2]) [µM]	Kd (Toll-like receptor 4 [3]) [µM]
Peroxiredoxin 1 (recombinant human Prx1, unlabeled) (natural protein, UniProt Q06830 1-199, looked up) MSSGNAKIGHPAPNFKATAVMPDGQFKDISLSDYKGKYVVFFFYPLDFTFVCPTEIIAFSDRAEEFKKLNCQVIGASVDSHFCHLAWVNTPKKQGGLGPMNIPLVSDPKRTIAQDYGVLKADEGISFRGLFIIDDKGILRQITVNDLPVGRSVDETLRLVQAFQFTDKHGEVCPAGWKPGSDTIKPDVQKSKEYFSKQK	4100	–	–
FITC-conjugated Prx1 (recombinant human) (natural protein, UniProt Q06830 1-199, looked up, FITC conjugated (FITC conjugation kit, Sigma; residues not stated)) MSSGNAKIGHPAPNFKATAVMPDGQFKDISLSDYKGKYVVFFFYPLDFTFVCPTEIIAFSDRAEEFKKLNCQVIGASVDSHFCHLAWVNTPKKQGGLGPMNIPLVSDPKRTIAQDYGVLKADEGISFRGLFIIDDKGILRQITVNDLPVGRSVDETLRLVQAFQFTDKHGEVCPAGWKPGSDTIKPDVQKSKEYFSKQK	–	~1300	1600
Prx1C52S (recombinant human, unlabeled) (natural protein, UniProt Q06830 1-199, looked up) MSSGNAKIGHPAPNFKATAVMPDGQFKDISLSDYKGKYVVFFFYPLDFTFVSPTEIIAFSDRAEEFKKLNCQVIGASVDSHFCHLAWVNTPKKQGGLGPMNIPLVSDPKRTIAQDYGVLKADEGISFRGLFIIDDKGILRQITVNDLPVGRSVDETLRLVQAFQFTDKHGEVCPAGWKPGSDTIKPDVQKSKEYFSKQK	5200	–	–
FITC-conjugated Prx1C52S (recombinant human) (natural protein, UniProt Q06830 1-199, looked up, FITC conjugated (FITC conjugation kit, Sigma; residues not stated)) MSSGNAKIGHPAPNFKATAVMPDGQFKDISLSDYKGKYVVFFFYPLDFTFVSPTEIIAFSDRAEEFKKLNCQVIGASVDSHFCHLAWVNTPKKQGGLGPMNIPLVSDPKRTIAQDYGVLKADEGISFRGLFIIDDKGILRQITVNDLPVGRSVDETLRLVQAFQFTDKHGEVCPAGWKPGSDTIKPDVQKSKEYFSKQK	–	–	2500
